Legend:
[1] = molecular target: biotin-labeled RSV-IQN51 (Respiratory Syncytial Virus (F1 part)); test: time-resolved FRET competition, IQN51-APC/C39-Eu assay; competitor C39-Eu
[2] = molecular target: biotin-labeled RSV-IQN57 (Respiratory Syncytial Virus (F1 part)); test: time-resolved FRET competition, IQN57-APC/C45-Eu assay; competitor C45-Eu

Row | Substance | IC50 [1] | IC50 [2]
1 | HIV-C34 (peptide) | > 10 µM | > 10 µM
2 | HIV-T20 (peptide) | > 10 µM | > 10 µM

From patent US20100035363A1
